In the supplement of paper PMC10126150:
± gives the standard deviation of the averaged measurements.

System: ATP
Test: switch fluorescence ratio, 500 uM ATP over buffer (Cy3 cluster intensity, sum of 5 cycles each) (fold (ratio)); higher = stronger signal-on switching upon ATP binding; sequences stand for … in TCGTCGGCAGCGTCAGATGTGTATAAGAGACAGTTTTTTTTTTTTTTTTTTTTTTTTT…TC
Conditions: aptamer strand: ATP DNA aptamer (quencher-CACCTGGGGGAGTATTGCGGAGGAAGG + anchor), 100 nM annealed; ATP concentration: 500 uM
Summary of the method: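 For every switch-domain sequence, the fluorescence ratio is the mean of per-cluster values, each being summed target-cycle Cy3 intensity over summed buffer-cycle Cy3 intensity. Clusters outside 100-1000 RFU were excluded. On a modified Illumina MiSeq flow-cell, the Cy3-labelled switching-strand clusters were annealed to 100 nM quencher-labelled ATP aptamer, imaged in selection buffer and then after 15 min with 500 uM ATP at 22 °C. Five such cycles were run, with NaOH stripping and re-annealing between them.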
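Also: ATP exposure 15 min at 22 °C before imaging.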

Row | Sequence | switch fluorescence ratio
1 | CGGAGACGTG | 1 ± 0.025
2 | GTGTTGTTGG | 0.986 ± 0.019
3 | AACGGGATGG | 1.02 ± 0.036
4 | TTCTTTAGAA | 1.03 ± 0.046
5 | TTCTATACAT | 1.04 ± 0.054
6 | AGTTGGGCGG | 1.02 ± 0.021
7 | TCACTTGAGC | 1.011 ± 0.0091
8 | ATCAGTAAAA | 1.01 ± 0.035
9 | AAGTGATTTG | 1.01 ± 0.018
10 | AGGGGAATAG | 1.01 ± 0.016
11 | TCTGTTGTG | 1.03 ± 0.029
12 | GAAATTAGTT | 0.991 ± 0.018
13 | GGGGCGGTGG | 1.036 ± 0.0062
14 | GATTTATCGC | 1 ± 0.046
15 | CGGAGGCAAG | 1.14 ± 0.045
16 | GAATTTGTTT | 0.984 ± 0.035
17 | TGCTCTGCTA | 1.683 ± 0.0023
18 | GAGTTATGGT | 1.02 ± 0.044
19 | TAGAGGCCGG | 1 ± 0.003
20 | TAGGGGGGCG | 1.01 ± 0.085
21 | ACGTAACCTA | 1.28 ± 0.014
22 | GGGAAAAGA | 1.04 ± 0.018
23 | GGGATCGGGA | 0.995 ± 0.013

Row | Sequence | switch fluorescence ratio
24 | TGTGAAGGGC | 1.02 ± 0.029
25 | CCGCGGGTTC | 1.55 ± 0.45
26 | ATTTTATTGT | 1 ± 0.05
27 | TTTGGTTTGA | 1 ± 0.046
28 | TTAAGCATAG | 1.69 ± 0.91
29 | GTGGGAATTA | 0.996 ± 0.025
30 | TCGGGGATGA | 1.067 ± 0.0092
31 | TATGTAGCCG | 1.03 ± 0.098
32 | CGGGGGCGCT | 1.02 ± 0.013
33 | TACGGGGCTG | 1.01 ± 0.11
34 | CGGGGGCTGC | 1.13 ± 0.1
35 | TATAGCTACC | 1.13 ± 0.043
36 | CTGTGTGATG | 0.991 ± 0.017
37 | TCTTCTGGCT | 1.02 ± 0.019
38 | CCCTAATAGA | 1.03 ± 0.026
39 | TATTGGCGTC | 0.985 ± 0.029
40 | TGACGGGGTT | 0.992 ± 0.026
41 | TGTGGGGTCT | 1.02 ± 0.038
42 | CCGTTTAGGG | 0.999 ± 0.016
43 | AACAGTGATA | 1.01 ± 0.027
44 | GGTAGTGGGA | 1 ± 0.046
45 | AGAGTGGTGT | 1 ± 0.024
46 | TTCCTAAAAG | 0.979 ± 0.011

Row | Sequence | switch fluorescence ratio
47 | ATGAGGGTTT | 1.01 ± 0.017
48 | ACTACATATG | 1.03 ± 0.016
49 | TTATCAAAGG | 0.986 ± 0.014
50 | TTTTCGGTCT | 0.994 ± 0.017
51 | TCCCGGTCCG | 1 ± 0.027
52 | ATTCGATTTC | 1 ± 0.033
53 | AATGTTCTGG | 0.99 ± 0.032
54 | TTGGGGTTCG | 0.98 ± 0.029
55 | GAAATAGGTA | 0.988 ± 0.013
56 | CGTTCAGTTC | 0.972 ± 0.053
57 | TGATAGGACA | 0.983 ± 0.023
58 | TTGGATTGGG | 1.02 ± 0.064
59 | ATATCTTTCG | 1.02 ± 0.014
60 | CAATGTTGAT | 1.01 ± 0.026
61 | CATATAGTTC | 0.984 ± 0.03
62 | TTGGGTTCTC | 0.983 ± 0.037
63 | TTTCCTTTGG | 1.01 ± 0.032
64 | GATAGCCGAT | 1.031 ± 0.0015
65 | TGCAACGAGG | 0.998 ± 0.035
66 | CGTTTCGTGT | 0.972 ± 0.066
67 | TTAATCGCTC | 1.02 ± 0.021
68 | GAGTTATATT | 0.985 ± 0.025
69 | AGTCTATCTG | 0.964 ± 0.03

Row | Sequence | switch fluorescence ratio
70 | AAGCGTGCCT | 1.01 ± 0.018
71 | TATCGAATTA | 0.987 ± 0.017
72 | GATATGCGTT | 0.985 ± 0.031
73 | TTTATGCAGC | 1.12 ± 0.16
74 | ACCGTGTTAT | 0.9583 ± 0.0037
75 | GACGTTAAAC | 1.56 ± 0.019
76 | GAAGTAGCAG | 0.984 ± 0.025
77 | TCCAAATTAC | 2.08 ± 0.064
78 | TTAGACGGTT | 1 ± 0.017
79 | GCTATTGGTG | 1.06 ± 0.019
80 | TATTTCGATA | 1.029 ± 0.0047
81 | CTGTTAATAG | 1.12 ± 0.027
82 | AATGGTGTAC | 1.03 ± 0.011
83 | GGTCTGAAGT | 1.008 ± 0.004
84 | TCGAAAAATT | 0.975 ± 0.048
85 | TGAATGAAGG | 1.01 ± 0.058
86 | AGCATAGCAT | 1.01 ± 0.019
87 | CACGGGGGAC | 1.06 ± 0.021
88 | CGTTGATGTG | 0.99 ± 0.045
89 | CGGCGGGAAG | 1 ± 0.023
90 | TTTAGGCTTT | 1 ± 0.012
91 | GCGCATTGTT | 1.026 ± 0.0094
92 | GATGGATAGG | 0.9804 ± 0.0043

Row | Sequence | switch fluorescence ratio
93 | TCATCTAGTG | 1 ± 0.049
94 | AGGGCTTTTA | 1 ± 0.013
95 | AAAAGTTTGT | 1 ± 0.032
96 | AGAATTAAG | 0.96 ± 0.017
97 | GCTCGGGTTG | 0.984 ± 0.041
98 | ACGTGTTTTG | 1.02 ± 0.018
99 | GGATGACAGA | 0.969 ± 0.01
100 | GTAGTGAGGG | 0.982 ± 0.037
101 | GACGATTATA | 1.028 ± 0.0017
102 | TCTTAGGCGG | 0.977 ± 0.039
103 | GACGGGGGGG | 1 ± 0.023
104 | ATGAGGGTTG | 1.04 ± 0.013
105 | TTAGGACCCT | 1.01 ± 0.041
106 | TCGGTCAAGG | 0.949 ± 0.02
107 | TTGAGCCTGT | 0.977 ± 0.028
108 | ATCGTACGGC | 1.01 ± 0.026
109 | AGCCGGGTAG | 1.053 ± 0.0086
110 | TTTATAGCGG | 0.996 ± 0.015
111 | TGAAAGTTGG | 0.997 ± 0.013
112 | AGGCGAAGGG | 0.993 ± 0.032
113 | AGCCAGTTTT | 0.9892 ± 0.0073
114 | TGGTTGGGAT | 1 ± 0.04
115 | GGTTCAGAGA | 0.973 ± 0.033

Row | Sequence | switch fluorescence ratio
116 | TTGGGACGGG | 0.994 ± 0.022
117 | TTGATTTCGA | 1.06 ± 0.019
118 | AGTAGAGTGT | 0.995 ± 0.04
119 | TTAATTCATT | 1.01 ± 0.016
120 | GGTATATATG | 0.995 ± 0.055
121 | TCTGTAAGGC | 1.39 ± 0.066
122 | TGGGGGCTTT | 0.99 ± 0.023
123 | TTAAATACGT | 1.06 ± 0.049
124 | TGTGCGGGGT | 0.974 ± 0.012
125 | AGTTAATTTT | 1.0014 ± 0.0007
126 | ATTTAACGAG | 1.01 ± 0.021
127 | TGCGCACGGG | 1.03 ± 0.019
128 | TGGGGGGCTA | 1.02 ± 0.056
129 | TTATTTGTAC | 1.052 ± 0.0021
130 | CGATTAAGGC | 1.003 ± 0.0026
131 | GTTATGCTCT | 1.01 ± 0.014
132 | TTATTGGGTT | 0.995 ± 0.017
133 | GACTTAATGG | 0.962 ± 0.051
134 | TTTTTATTTG | 0.995 ± 0.05
135 | TTTTGAGATC | 1.04 ± 0.045
136 | CTGAGAAGAG | 0.993 ± 0.041
137 | CGTAACTTAC | 1.6 ± 0.097
138 | TGGAGCCTGG | 0.984 ± 0.021

Row | Sequence | switch fluorescence ratio
139 | CAGCTTAGGG | 1.01 ± 0.036
140 | TGAGAGTTTG | 0.987 ± 0.017
141 | GGGATCTGAA | 0.969 ± 0.026
142 | TATTGCGTGG | 0.9836 ± 0.0073
143 | GGGTTTTCGG | 0.987 ± 0.026
144 | CTCATATTGT | 1.006 ± 0.0076
145 | TTCACGGCCT | 1.03 ± 0.018
146 | AACGAGACCA | 1.07 ± 0.052
147 | ATGGATTGGC | 1.08 ± 0.035
148 | TTTATAGTGT | 0.9894 ± 0.0097
149 | AAGGAGCTGA | 0.9915 ± 0.0037
150 | TCTCTGGTTA | 1.01 ± 0.018
151 | TTGTGCGCGG | 1.04 ± 0.019
152 | ATATGTGATG | 0.997 ± 0.021
153 | AAGATAGGTT | 1.02 ± 0.057
154 | ATTCAGCATT | 1.05 ± 0.02
155 | TGCCAACAGA | 1.25 ± 0.39
156 | CTTGTCAAGT | 0.984 ± 0.071
157 | GCGGTGGACG | 0.947 ± 0.077
